In US20200222478A1 (published 2020):

Assays:
Assay in all cases: UV peptide exchange + HLA class I ELISA
HLA-A*01:01 = molecular target: T1, HLA-A*01:01 (human, biotinylated heavy chain)
T1 construct: Conditional HLA class I complex first loaded with a UV-labile peptide, which is cleaved by UV and exchanged for the test peptide; captured on streptavidin by its biotinylated heavy chain; also called conditional HLA class I complex
Procedure: (§1) The HLA class I ELISA is an enzyme immunoassay based on the detection of beta2-microglobulin (B2M) of (peptide-stabilized) HLA class I complexes. To this end streptavidin was bound onto polystyrene microtiter wells. […] Non-bound material was removed by washing. Subsequently, horseradish peroxidase (HRP)-conjugated antibody to human B2M was added. […] In the latter case B2M was removed during the washing step. After removal of non-bound HRP conjugate by washing, a substrate solution was added to the wells. A coloured product formed in proportion to the amount of intact HLA complex present in the samples. After the reaction was terminated by the addition of a stop solution, absorbance was measured in a microtiter plate reader.

HLA-A*02:01 = molecular target: T2, HLA-A*02:01 (human, biotinylated heavy chain)
T2 construct: Conditional HLA class I complex first loaded with a UV-labile peptide, exchanged for the test peptide after UV; also called conditional HLA class I complex
Procedure: as §1

HLA-A*03:01 = molecular target: T3, HLA-A*03:01 (human, biotinylated heavy chain)
T3 construct: Conditional HLA class I complex first loaded with a UV-labile peptide, exchanged for the test peptide after UV; also called conditional HLA class I complex
Procedure: as §1

HLA-A*24:02 = molecular target: T4, HLA-A*24:02 (human, biotinylated heavy chain)
T4 construct: Conditional HLA class I complex first loaded with a UV-labile peptide, exchanged for the test peptide after UV; also called conditional HLA class I complex
Procedure: as §1

HLA-B*08:01 = molecular target: T5, HLA-B*08:01 (human, biotinylated heavy chain)
T5 construct: Conditional HLA class I complex first loaded with a UV-labile peptide, exchanged for the test peptide after UV; also called conditional HLA class I complex
Procedure: as §1

HLA-B*07:02 = molecular target: T6, HLA-B*07:02 (human, biotinylated heavy chain)
T6 construct: Conditional HLA class I complex first loaded with a UV-labile peptide, exchanged for the test peptide after UV; also called conditional HLA class I complex
Procedure: as §1

Binder	exchange rate vs Pos peptide (HLA-A*01:01) [%]	exchange rate vs Pos peptide (HLA-A*02:01) [%]	exchange rate vs Pos peptide (HLA-A*03:01) [%]	exchange rate vs Pos peptide (HLA-A*24:02) [%]	exchange rate vs Pos peptide (HLA-B*08:01) [%]	exchange rate vs Pos peptide (HLA-B*07:02) [%]
GVLRRLLCR [P37 9-mer peptide (TSTD1-F11R fusion)]	1.4	12.5	6.4	-0.1	3.3	
IQYSCMGLM [P50 9-mer peptide (AR (W742C))]	2.3	8.8	5.5	0.1	4.7	10.4
NMVENGCYL [P59 9-mer peptide (FOXA1 (F254V))]	2.2	11.9	4.5	-0.5	5.5	7.5
STRRAVRRM (Synthetic 9-mer fragment) [P16 9-mer peptide (MSMB-NCOA4 fusion)]	5.5	10.4	6.1	0.8	6.2	13.7
NSKMALNSL [P35 9-mer peptide (TMPRSS2-ERG fusion)]	2.5	12.5	4.2	0.2	13.7	12.1
FFKRAAEGF [P77 9-mer peptide (AR-V3 splice variant)]	1.9		2.8	1.7	3.4	14.2
FPVGAEGTF [P27 9-mer peptide (FAM126B-ORC2 fusion)]	4.8	10	4.5	0.7	6.4	7.8
